Paper PMC7704496, “RNA and DNA Binding Epitopes of the Cold Shock Protein TmCsp from the Hyperthermophile Thermotoga maritima”

Experiments:
Details in all cases: protein: recombinant; tags: none stated; chain copies: 2; label: none (5'-fluorescein in EMSA); single strand
[1] = molecular target: T1, TmCsp (cold shock protein) (Thermotoga maritima, UniProt O54310 1-66); assay: Trp fluorescence quenching; 323 K; EMSA: 50 mM NaH2PO4 pH 6.5, 20 mM NaCl, 0.2 mM EDTA, room temperature 1 h, 20% gel in 1xTBE at 4 C; NMR: 50 mM sodium phosphate pH 6.5, 20 mM NaCl, 0.2 mM EDTA
[2] = molecular target: T1, TmCsp (cold shock protein); assay: Trp fluorescence quenching; 303 K; EMSA: 50 mM NaH2PO4 pH 6.5, 20 mM NaCl, 0.2 mM EDTA, room temperature 1 h, 20% gel in 1xTBE at 4 C; NMR: 50 mM sodium phosphate pH 6.5, 20 mM NaCl, 0.2 mM EDTA
[3] = molecular target: T1, TmCsp (cold shock protein); assay: Trp fluorescence quenching; 343 K; EMSA: 50 mM NaH2PO4 pH 6.5, 20 mM NaCl, 0.2 mM EDTA, room temperature 1 h, 20% gel in 1xTBE at 4 C; NMR: 50 mM sodium phosphate pH 6.5, 20 mM NaCl, 0.2 mM EDTA

T1 sequence (O54310 whole entry): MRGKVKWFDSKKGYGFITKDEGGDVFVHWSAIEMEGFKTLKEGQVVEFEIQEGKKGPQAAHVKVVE

Binder	Kd [1]	Kd [2]	Kd [3]
UUUUUUU (ssRNA) [(rU)7]	1520 ± 10 nM	10.8 ± 0.8 nM	17.4 ± 0.1 µM
GGGGGGG (ssDNA) [(dG)7]	–	3400 ± 100 nM	5.6 ± 0.1 µM
TTTTTTT (ssDNA) [(dT)7]	440 ± 20 nM	4 ± 0.2 nM	1.6 ± 0.04 µM
AAAAAAA (ssDNA) [(dA)7]	–	5000 ± 200 nM	–
CCCCCCC (ssDNA) [(dC)7]	–	2800 ± 100 nM	11 ± 0.1 µM
